Source: patent publication US20240190985A1 (published 2024)

T1: CD99 endogenously expressed on cells (Jurkat, KOPT-K1) (UniProt P14209 23-185, O-linked glycosylation (natural, on cells))
T1 chain: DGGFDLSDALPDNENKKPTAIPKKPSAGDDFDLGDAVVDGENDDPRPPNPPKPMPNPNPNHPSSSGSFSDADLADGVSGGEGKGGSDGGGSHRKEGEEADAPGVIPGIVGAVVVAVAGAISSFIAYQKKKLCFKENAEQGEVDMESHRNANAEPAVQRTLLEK

T2: SUMO-CD99 fusion protein (SUMO fused with the extracellular domain of CD99, residues 23-122) (UniProt P14209 23-122, biotin on the AviTag (BirA, in vitro))
T2 chain: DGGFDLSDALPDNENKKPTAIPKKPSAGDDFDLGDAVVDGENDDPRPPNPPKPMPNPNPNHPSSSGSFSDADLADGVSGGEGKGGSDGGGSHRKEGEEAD


Assays:
[1] = biological target: T1, CD99 endogenously expressed on cells …; experiment: cell binding; apparent KD; nM Fv; avid
[2] = biological target: T1, CD99 endogenously expressed on cells …; experiment: cell binding; apparent KD; nM molecule; avid
[3] = biological target: T1, CD99 endogenously expressed on cells …; experiment: cell binding; apparent KD; nM Fv
[4] = biological target: T1, CD99 endogenously expressed on cells …; experiment: cell binding; apparent KD; nM molecule
[5] = biological target: T2, SUMO-CD99 fusion protein (SUMO fused …); experiment: bead-based titration (flow cytometry); apparent KD, nM Fv, scFv-Fc

Row | Binder | Kd [1] [nM] | Kd [2] [nM] | also measured
1 | 10A1 IgG-E345R (antibody) heavy: QVQLQQSGPVLVKPSQTLSLTCAISGDSISSDTTAWSWIRRSPSRGLEWLGWTYYRSKWFNYYAVSVKGRVTINPDTSKNQFSLQLSSVTPEDTAVYYCARGNGNGGMDVWGQGTTVTVSSASTKGPSVFPLAPSSKSTSGGTAALGCLVKDYFPEPVTVSWNSGALTSGVHTFPAVLQSSGLYSLSSVVTVPSSSLGTQTYICNVNHKPSNTKVDKKVEPKSCDKTHTCPPCPAPEAAGGPSVFLFPPKPKDTLMISRTPEVTCVVVDVSHEDPEVKFNWYVDGVEVHNAKTKPREEQYNSTYRVVSVLTVLHQDWLNGKEYKCKVSNKALGAPIEKTISKAKGQPRRPQVYTLPPSREEMTKNQVSLTCLVKGFYPSDIAVEWESNGQPENNYKTTPPVLDSDGSFFLYSKLTVDKSRWQQGNVFSCSVMHEALHNHYTQKSLSLSPGK light: SYVLTQPASASVSPGQTARITCSGDALPKQYAYWYQQKPGQAPVLVIFKDSERPSGVPERFSGSSSGTTVTLTISGAQAEDEADYYCQSVDNSGFYQVFGGGTQLTVLRTVAAPSVFIFPPSDEQLKSGTASVVCLLNNFYPREAKVQWKVDNALQSGNSQESVTEQDSKDSTYSLSSTLTLSKADYEKHKVYACEVTHQGLSSPVTKSFNRGEC | 16 | 8 | –
2 | 10A1 IgG-LALA (antibody) heavy: QVQLQQSGPVLVKPSQTLSLTCAISGDSISSDTTAWSWIRRSPSRGLEWLGWTYYRSKWFNYYAVSVKGRVTINPDTSKNQFSLQLSSVTPEDTAVYYCARGNGNGGMDVWGQGTTVTVSSASTKGPSVFPLAPSSKSTSGGTAALGCLVKDYFPEPVTVSWNSGALTSGVHTFPAVLQSSGLYSLSSVVTVPSSSLGTQTYICNVNHKPSNTKVDKKVEPKSCDKTHTCPPCPAPEAAGGPSVFLFPPKPKDTLMISRTPEVTCVVVDVSHEDPEVKFNWYVDGVEVHNAKTKPREEQYNSTYRVVSVLTVLHQDWLNGKEYKCKVSNKALGAPIEKTISKAKGQPREPQVYTLPPSREEMTKNQVSLTCLVKGFYPSDIAVEWESNGQPENNYKTTPPVLDSDGSFFLYSKLTVDKSRWQQGNVFSCSVMHEALHNHYTQKSLSLSPGK light: SYVLTQPASASVSPGQTARITCSGDALPKQYAYWYQQKPGQAPVLVIFKDSERPSGVPERFSGSSSGTTVTLTISGAQAEDEADYYCQSVDNSGFYQVFGGGTQLTVLRTVAAPSVFIFPPSDEQLKSGTASVVCLLNNFYPREAKVQWKVDNALQSGNSQESVTEQDSKDSTYSLSSTLTLSKADYEKHKVYACEVTHQGLSSPVTKSFNRGEC | 5.4 | 2.7 | –
3 | 10A1 IgG-HCscFv (antibody) heavy: QVQLQQSGPVLVKPSQTLSLTCAISGDSISSDTTAWSWIRRSPSRGLEWLGWTYYRSKWFNYYAVSVKGRVTINPDTSKNQFSLQLSSVTPEDTAVYYCARGNGNGGMDVWGQGTTVTVSSASTKGPSVFPLAPSSKSTSGGTAALGCLVKDYFPEPVTVSWNSGALTSGVHTFPAVLQSSGLYSLSSVVTVPSSSLGTQTYICNVNHKPSNTKVDKKVEPKSCDKTHTCPPCPAPEAAGGPSVFLFPPKPKDTLMISRTPEVTCVVVDVSHEDPEVKFNWYVDGVEVHNAKTKPREEQYNSTYRVVSVLTVLHQDWLNGKEYKCKVSNKALGAPIEKTISKAKGQPREPQVYTLPPSREEMTKNQVSLTCLVKGFYPSDIAVEWESNGQPENNYKTTPPVLDSDGSFFLYSKLTVDKSRWQQGNVFSCSVMHEALHNHYTQKSLSLSPGKSSGSSGSSSSSGSSSQVQLQQSGPVLVKPSQTLSLTCAISGDSISSDTTAWSWIRRSPSRGLEWLGWTYYRSKWFNYYAVSVKGRVTINPDTSKNQFSLQLSSVTPEDTAVYYCARGNGNGGMDVWGQGTTVTVSSGSSSSSSGSSGSSSSSYVLTQPASASVSPGQTARITCSGDALPKQYAYWYQQKPGQAPVLVIFKDSERPSGVPERFSGSSSGTTVTLTISGAQAEDEADYYCQSVDNSGFYQVFGGGTQLTVL light: SYVLTQPASASVSPGQTARITCSGDALPKQYAYWYQQKPGQAPVLVIFKDSERPSGVPERFSGSSSGTTVTLTISGAQAEDEADYYCQSVDNSGFYQVFGGGTQLTVLRTVAAPSVFIFPPSDEQLKSGTASVVCLLNNFYPREAKVQWKVDNALQSGNSQESVTEQDSKDSTYSLSSTLTLSKADYEKHKVYACEVTHQGLSSPVTKSFNRGEC | 5.3 | 1.3 | –
4 | 10A1 Fab (Fab, V domains shown) VH: QVQLQQSGPVLVKPSQTLSLTCAISGDSISSDTTAWSWIRRSPSRGLEWLGWTYYRSKWFNYYAVSVKGRVTINPDTSKNQFSLQLSSVTPEDTAVYYCARGNGNGGMDVWGQGTTVTVSS VL: SYVLTQPASASVSPGQTARITCSGDALPKQYAYWYQQKPGQAPVLVIFKDSERPSGVPERFSGSSSGTTVTLTISGAQAEDEADYYCQSVDNSGFYQVFGGGTQLTVL | – | – | Kd [3]: > 250 nM; Kd [4]: > 250 nM
5 | 10A1 IgG-RGY (antibody) heavy: QVQLQQSGPVLVKPSQTLSLTCAISGDSISSDTTAWSWIRRSPSRGLEWLGWTYYRSKWFNYYAVSVKGRVTINPDTSKNQFSLQLSSVTPEDTAVYYCARGNGNGGMDVWGQGTTVTVSSASTKGPSVFPLAPSSKSTSGGTAALGCLVKDYFPEPVTVSWNSGALTSGVHTFPAVLQSSGLYSLSSVVTVPSSSLGTQTYICNVNHKPSNTKVDKKVEPKSCDKTHTCPPCPAPEAAGGPSVFLFPPKPKDTLMISRTPEVTCVVVDVSHEDPEVKFNWYVDGVEVHNAKTKPREEQYNSTYRVVSVLTVLHQDWLNGKEYKCKVSNKALGAPIEKTISKAKGQPRRPQVYTLPPSREEMTKNQVSLTCLVKGFYPSDIAVEWESNGQPENNYKTTPPVLDSDGSFFLYSKLTVDKSRWQQGNVFSCSVMHGALHNHYTQKYLSLSPGK light: SYVLTQPASASVSPGQTARITCSGDALPKQYAYWYQQKPGQAPVLVIFKDSERPSGVPERFSGSSSGTTVTLTISGAQAEDEADYYCQSVDNSGFYQVFGGGTQLTVLRTVAAPSVFIFPPSDEQLKSGTASVVCLLNNFYPREAKVQWKVDNALQSGNSQESVTEQDSKDSTYSLSSTLTLSKADYEKHKVYACEVTHQGLSSPVTKSFNRGEC | 6.2 | 0.5 | –
6 | clone 10 in the scFv-Fc format (Fc fusion) QVQLQQSGPVLVKPSQTLSLTCAISGDSVSSDTTAWSWIRQSPSRGLEWLGWTYYRSKWFNYYAVSVKSRVTINPDTSKNQFSLQLSSVTPEDTAVYYCARGNGNGGMDVWGQGTTVTVSSGILGSGGGGSGGGGSGGGGSSYVLTQPPSVSVSPGQTARITCSGDALPKQYAYWYQQKPGQAPVLVIFKDSERPSGIPERFSGSSSGTTVTLTISGVQAEDEADYYCQSADNSGFYQVFGGGTQLTVLSGSSSSLEGCKPCICTVPEVSSVFIFPPKPKDVLTITLTPKVTCVVVDISKDDPEVQFSWFVDDVEVHTAQTQPREEQFNSTFRSVSELPIMHQDWLNGKEFKCRVNSAAFPAPIEKTISKTKGRPKAPQVYTIPPPKEQMAKDKVSLTCMITDFFPEDITVEWQWNGQPAENYKNTQPIMDTDGSYFVYSKLNVQKSNWEAGNTFTCSVLHEGLHNHHTEKSLSHSPGKGGGGLNDIFEAQKIEWHESRHHHHHH | – | – | Kd [5]: 14 nM
7 | clone 22 in the scFv-Fc format (Fc fusion) QVQLQQSGPGLVKPSQTLSLTCAISGDSVSSNSAAWNWIRQSPSRGLEWLGRTYYRSKWYNDYAVSVKSRITINPDTSKNQFSLQLNSVTPEDTAVYYCARGSYGSGLVWGQGTTVTVSSGSASAPTGILGSGGGGSGGGGSGGGGSNFMLTQPHSVSESPGKTVTISCTGSSGSIASNYVQWYQQRPGSAPTTVIYEDDQRPSGVPDRFSGSLDTSSNSASLTISGLRPEDEADYYCQSYDNKDNVVFGGGTKVTVLSGSSSSLEGCKPCICTVPEVSSVFIFPPKPKDVLTITLTPKVTCVVVDISKDDPEVQFSWFVDDVEVHTAQTQPREEQFNSTFRSVSELPIMHQDWLNGKEFKCRVNSAAFPAPIEKTISKTKGRPKAPQVYTIPPPKEQMAKDKVSLTCMITDFFPEDITVEWQWNGQPAENYKNTQPIMDTDGSYFVYSKLNVQKSNWEAGNTFTCSVLHEGLHNHHTEKSLSHSPGKGGGGLNDIFEAQKIEWHESRHHHHHH | – | – | Kd [5]: 18 nM
